Experimental data reported in the supplement of paper PMC9112550, “Optimization of the antimicrobial peptide Bac7 by deep mutational scanning” (BMC Biology, 2022).

test system: Escherichia coli TOP10; assay: shrunken log2 fold change of peptide-encoding DNA abundance (4.5 h post-induction vs induction); higher = less antimicrobial activity (less host growth inhibition); details: time post-induction: 4.5 h; library: site-saturation at positions 5, 18, 19, 20
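Note: peptides expressed intracellularly from a pBAD plasmid library in pooled LB shake-flask culture, induced with 0.3% L-arabinose, DNA abundance read by NGS, three biological replicates, DESeq2 with apeglm shrinkage.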

RRIRIRPPRLPRPRPRPKWSPRP and RRIRRRPPRLPRPRPRPDTGPRP are within 0.2 log units of each other in “shrunken log2 fold change” value: 0.107 for the first, 0.0107 for the second.

First: RRIRPRPPRLPRPRPRPSLAPRP
Second: RRIRERPPRLPRPRPRPYDQPRP
The “shrunken log2 fold change” value of the first is higher: 0.185 for the first, -0.518 for the second.

Compared with RRIRARPPRLPRPRPRPWTEPRP, RRIRQRPPRLPRPRPRPDCRPRP is higher in “shrunken log2 fold change” value: -0.181 for the first, 0.0305 for the second.

First: RRIRRRPPRLPRPRPRPGYGPRP
Second: RRIRERPPRLPRPRPRPHIRPRP
The “shrunken log2 fold change” value of the first is higher: 0.238 for the first, -0.126 for the second.

First: RRIRYRPPRLPRPRPRPHSDPRP
Second: RRIRTRPPRLPRPRPRPNESPRP
The “shrunken log2 fold change” value of the first is higher: -0.0292 for the first, -0.379 for the second.

RRIRGRPPRLPRPRPRPQRIPRP and RRIRLRPPRLPRPRPRPKQKPRP are within 0.2 log units of each other in “shrunken log2 fold change” value: 0.178 for the first, 0.0979 for the second.

RRIRERPPRLPRPRPRPGQFPRP and RRIRCRPPRLPRPRPRPHEGPRP are within 0.2 log units of each other in “shrunken log2 fold change” value: -0.295 for the first, -0.172 for the second.

RRIRVRPPRLPRPRPRPKRGPRP and RRIRDRPPRLPRPRPRPNMLPRP are within 0.2 log units of each other in “shrunken log2 fold change” value: 0.054 for the first, 0.0937 for the second.

Going from RRIRERPPRLPRPRPRPKKWPRP to RRIRKRPPRLPRPRPRPKFMPRP, the “shrunken log2 fold change” value falls from 2.71 to -0.0124.

RRIRTRPPRLPRPRPRPQICPRP and RRIRIRPPRLPRPRPRPAWRPRP are within 0.2 log units of each other in “shrunken log2 fold change” value: 0.13 for the first, 0.263 for the second.

Going from RRIRTRPPRLPRPRPRPKACPRP to RRIRKRPPRLPRPRPRPLYHPRP, the “shrunken log2 fold change” value falls from 0.0653 to -0.364.

Going from RRIRTRPPRLPRPRPRPIITPRP to RRIRFRPPRLPRPRPRPHGTPRP, the “shrunken log2 fold change” value rises from -0.645 to -0.134.

Going from RRIRCRPPRLPRPRPRPCFDPRP to RRIRDRPPRLPRPRPRPAFSPRP, the “shrunken log2 fold change” value rises from -0.526 to -0.0405.

Compared with RRIRKRPPRLPRPRPRPFYTPRP, RRIRGRPPRLPRPRPRPNVQPRP is higher in “shrunken log2 fold change” value: -0.109 for the first, 1.08 for the second.

RRIRGRPPRLPRPRPRPQYGPRP and RRIRWRPPRLPRPRPRPQPVPRP are within 0.2 log units of each other in “shrunken log2 fold change” value: -0.008 for the first, 0.135 for the second.

RRIRHRPPRLPRPRPRPLTRPRP and RRIRHRPPRLPRPRPRPKYLPRP are within 0.2 log units of each other in “shrunken log2 fold change” value: 0.0261 for the first, -0.0216 for the second.

First: RRIRIRPPRLPRPRPRPPRIPRP
Second: RRIRCRPPRLPRPRPRPHEPPRP
The “shrunken log2 fold change” value of the first is higher: 0.333 for the first, -0.00114 for the second.

RRIRPRPPRLPRPRPRPSDRPRP and RRIRDRPPRLPRPRPRPWAKPRP are within 0.2 log units of each other in “shrunken log2 fold change” value: -0.00705 for the first, -0.0135 for the second.

Compared with RRIRDRPPRLPRPRPRPRDPPRP, RRIRNRPPRLPRPRPRPENCPRP is lower in “shrunken log2 fold change” value: 2.7 for the first, 0.0518 for the second.

Going from RRIRMRPPRLPRPRPRPPVDPRP to RRIRKRPPRLPRPRPRPERKPRP, the “shrunken log2 fold change” value falls from 1.14 to 0.582.

RRIRTRPPRLPRPRPRPDDTPRP and RRIRDRPPRLPRPRPRPLQSPRP are within 0.2 log units of each other in “shrunken log2 fold change” value: -0.12 for the first, -0.015 for the second.

Compared with RRIRMRPPRLPRPRPRPISGPRP, RRIRERPPRLPRPRPRPPVAPRP is higher in “shrunken log2 fold change” value: 0.0247 for the first, 0.658 for the second.

Going from RRIRFRPPRLPRPRPRPAESPRP to RRIRWRPPRLPRPRPRPMYMPRP, the “shrunken log2 fold change” value rises from -0.117 to 0.0903.

Going from RRIRWRPPRLPRPRPRPGRDPRP to RRIRLRPPRLPRPRPRPHTHPRP, the “shrunken log2 fold change” value falls from 0.122 to -0.441.

First: RRIRGRPPRLPRPRPRPLTAPRP
Second: RRIRIRPPRLPRPRPRPGGHPRP
The “shrunken log2 fold change” value of the first is higher: 0.998 for the first, -0.0701 for the second.

First: RRIRSRPPRLPRPRPRPCRYPRP
Second: RRIRWRPPRLPRPRPRPWVQPRP
The “shrunken log2 fold change” value of the first is lower: -0.424 for the first, 0.128 for the second.

RRIRSRPPRLPRPRPRPTNDPRP and RRIRNRPPRLPRPRPRPPSEPRP are within 0.2 log units of each other in “shrunken log2 fold change” value: -0.162 for the first, -0.147 for the second.

First: RRIRQRPPRLPRPRPRPCFMPRP
Second: RRIRMRPPRLPRPRPRPTLWPRP
The “shrunken log2 fold change” value of the first is lower: 0.628 for the first, 0.968 for the second.

RRIRVRPPRLPRPRPRPVTVPRP and RRIRTRPPRLPRPRPRPVKRPRP are within 0.2 log units of each other in “shrunken log2 fold change” value: -0.0359 for the first, 0.0411 for the second.

RRIRNRPPRLPRPRPRPWMKPRP and RRIRTRPPRLPRPRPRPCNPPRP are within 0.2 log units of each other in “shrunken log2 fold change” value: -0.0173 for the first, -0.0887 for the second.

Compared with RRIRWRPPRLPRPRPRPEVLPRP, RRIRVRPPRLPRPRPRPHSIPRP is lower in “shrunken log2 fold change” value: 0.167 for the first, -0.155 for the second.

First: RRIRNRPPRLPRPRPRPGDYPRP
Second: RRIRMRPPRLPRPRPRPGTTPRP
The “shrunken log2 fold change” value of the first is lower: 0.0582 for the first, 1.24 for the second.

First: RRIRVRPPRLPRPRPRPRNEPRP
Second: RRIRDRPPRLPRPRPRPKSNPRP
The “shrunken log2 fold change” value of the first is higher: 0.115 for the first, -0.305 for the second.

First: RRIRRRPPRLPRPRPRPRKTPRP
Second: RRIRDRPPRLPRPRPRPAHKPRP
The “shrunken log2 fold change” value of the first is higher: 0.615 for the first, -0.0546 for the second.

Going from RRIRTRPPRLPRPRPRPRKDPRP to RRIRFRPPRLPRPRPRPYQWPRP, the “shrunken log2 fold change” value falls from -0.0522 to -0.655.

RRIRQRPPRLPRPRPRPSNDPRP and RRIRCRPPRLPRPRPRPGNVPRP are the same in “shrunken log2 fold change” value: -0.357 for the first, -0.357 for the second.

RRIRSRPPRLPRPRPRPKMQPRP and RRIRSRPPRLPRPRPRPMGLPRP are within 0.2 log units of each other in “shrunken log2 fold change” value: 0.055 for the first, 0.101 for the second.

RRIRMRPPRLPRPRPRPYTCPRP and RRIRVRPPRLPRPRPRPNPNPRP are within 0.2 log units of each other in “shrunken log2 fold change” value: 8.02e-05 for the first, -0.108 for the second.

RRIRSRPPRLPRPRPRPISSPRP and RRIRLRPPRLPRPRPRPMSCPRP are within 0.2 log units of each other in “shrunken log2 fold change” value: -0.0591 for the first, 0.0448 for the second.

Going from RRIRLRPPRLPRPRPRPRSNPRP to RRIRNRPPRLPRPRPRPHGRPRP, the “shrunken log2 fold change” value falls from 1.62 to 0.00746.

First: RRIRCRPPRLPRPRPRPPAWPRP
Second: RRIRYRPPRLPRPRPRPVIDPRP
The “shrunken log2 fold change” value of the first is higher: 0.692 for the first, -0.942 for the second.

Compared with RRIRNRPPRLPRPRPRPYIMPRP, RRIRSRPPRLPRPRPRPRMPPRP is higher in “shrunken log2 fold change” value: -0.741 for the first, 0.0543 for the second.

Going from RRIRCRPPRLPRPRPRPTIPPRP to RRIRQRPPRLPRPRPRPGYCPRP, the “shrunken log2 fold change” value rises from -0.417 to -0.0255.

RRIRARPPRLPRPRPRPKTTPRP and RRIRRRPPRLPRPRPRPRIQPRP are within 0.2 log units of each other in “shrunken log2 fold change” value: 0.0562 for the first, 0.241 for the second.

Going from RRIRRRPPRLPRPRPRPNCSPRP to RRIRFRPPRLPRPRPRPQHCPRP, the “shrunken log2 fold change” value falls from 0.198 to -0.461.

Compared with RRIRKRPPRLPRPRPRPFILPRP, RRIRGRPPRLPRPRPRPQTDPRP is higher in “shrunken log2 fold change” value: -0.0304 for the first, 0.381 for the second.

RRIRERPPRLPRPRPRPETIPRP and RRIRYRPPRLPRPRPRPDVNPRP are within 0.2 log units of each other in “shrunken log2 fold change” value: -0.0222 for the first, -0.0115 for the second.

First: RRIRGRPPRLPRPRPRPRAEPRP
Second: RRIRWRPPRLPRPRPRPTPEPRP
The “shrunken log2 fold change” value of the first is higher: 1.01 for the first, 0.711 for the second.

RRIRCRPPRLPRPRPRPFNTPRP and RRIRFRPPRLPRPRPRPECRPRP are within 0.2 log units of each other in “shrunken log2 fold change” value: -0.2 for the first, -0.0408 for the second.

RRIRSRPPRLPRPRPRPRQAPRP and RRIRPRPPRLPRPRPRPLWVPRP are within 0.2 log units of each other in “shrunken log2 fold change” value: -0.0163 for the first, 0.165 for the second.

Going from RRIRKRPPRLPRPRPRPDKTPRP to RRIRCRPPRLPRPRPRPGRRPRP, the “shrunken log2 fold change” value rises from -0.0726 to 1.11.

First: RRIRSRPPRLPRPRPRPFQVPRP
Second: RRIRIRPPRLPRPRPRPKHVPRP
The “shrunken log2 fold change” value of the first is higher: -0.0848 for the first, -0.406 for the second.

Compared with RRIRLRPPRLPRPRPRPFKCPRP, RRIRGRPPRLPRPRPRPCLQPRP is lower in “shrunken log2 fold change” value: 2.83 for the first, 0.264 for the second.

Going from RRIRSRPPRLPRPRPRPWDVPRP to RRIRIRPPRLPRPRPRPTGMPRP, the “shrunken log2 fold change” value falls from 0.166 to -0.161.

In the case of RRIRTRPPRLPRPRPRPPSCPRP, the “shrunken log2 fold change” value is reported as 0.35.
